Measured values as given in US11833215B2, “CKIT antibody drug conjugates” (Novartis AG, priority 2014, dated 2023).

T1: mouse cKIT (Mus musculus, UniProt P05532)
T1 construct: cKIT receptor extracellular domains (ECD) were diluted in a 2-fold series
T1 sequence (P05532 25-527 limits assumed): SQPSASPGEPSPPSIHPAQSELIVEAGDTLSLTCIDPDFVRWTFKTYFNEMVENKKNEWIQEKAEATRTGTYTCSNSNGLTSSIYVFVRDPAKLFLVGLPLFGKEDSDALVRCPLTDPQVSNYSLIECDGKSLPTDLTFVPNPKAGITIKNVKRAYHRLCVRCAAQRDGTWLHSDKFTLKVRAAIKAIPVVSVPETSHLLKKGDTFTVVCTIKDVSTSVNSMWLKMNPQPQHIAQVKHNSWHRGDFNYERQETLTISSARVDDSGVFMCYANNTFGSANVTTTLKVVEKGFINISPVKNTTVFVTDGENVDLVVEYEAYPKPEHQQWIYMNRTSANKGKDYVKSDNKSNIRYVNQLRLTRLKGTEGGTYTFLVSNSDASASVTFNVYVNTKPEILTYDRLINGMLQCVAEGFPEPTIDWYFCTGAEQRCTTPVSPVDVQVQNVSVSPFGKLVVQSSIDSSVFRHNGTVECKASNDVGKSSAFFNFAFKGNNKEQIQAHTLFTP


Assays:
GIST cell lines = conditions: SR-1 as second therapeutic on Imatinib treated cells; cited from earlier work
Uke-1 cells = test: ADCC activity in vitro (Calcein release, NK3.3 effector cells); assay type: cell-based; conditions: unconjugated IgG1, effector to target ratio 20 to 1
Procedure: The ability of the unconjugated anti-cKIT antibodies (NEG085, 20376) to mediate antibody dependent cellular cytotoxicity was determined versus Uke-1 cells (target cells; generously provided by Professor Walter Fiedler, University Hospital Eppendorf, Hamburg, Germany) in co-incubation with NK3.3 cells (killer cells or effector cells; kindly provided by Jacky Kornbluth from Saint Louis University). […] In order to calculate the antibody specific lysis of the target cells, a parallel incubation of target cells only without antibody or effector cells served as a baseline and negative control, whereas the positive control or maximal lysis or hundred percent specific lysis was determined by lysis of target cells only with a 1% Triton-X 100 solution. […] Following a co-incubation of target and effector cells, the microtiterplate was centrifuged and an aliquot of the supernatant fluid was transferred to another microtiterplate (96 well, flat-bottomed, black with clear bottom; (Corning Costar, catalog #3904, Tewksbury, MA) and the concentration of free Calcein in solution was determined with a fluorescence counter (Victor 3 ® multilabel counter, Perkin Elmer, Waltham, MA).

human cKIT = target: T2, human cKIT (Homo sapiens, UniProt P10721); test: SPR (Biacore) affinity measurement; assay type: binding; conditions: 25° C., 1:1 model
T2 construct: Human cKIT tr. variant 2 , residues 26-520-TAG; made in house; host or cells: HEK293 derived cell line 293FS, transient transfection
Procedure: (§1) Affinity of the antibodies to cKIT species orthologues and also to cKIT was determined using SPR technology using a Biacore® 2000 instrument (GE Healthcare, Pittsburgh, PA) and with CM5 sensor chips.
(§2) Briefly, HBS-P (0.01 M HEPES, pH 7.4, 0.15 M NaCl, 0.005% Surfactant P20) supplemented with 2% Odyssey® blocking buffer (Li-Cor Biosciences, Lincoln, NE) was used as the running buffer for all the experiments. The immobilization level and analyte interactions were measured by response unit (RU). Pilot experiments were performed to test and confirm the feasibility of the immobilization of the anti-human Fc antibody (Catalog number BR100839, GE Healthcare, Pittsburgh, PA) and the capture of the test antibodies.
(§3) For kinetic measurements, the experiments were performed in which the antibodies were captured to the sensor chip surface via the immobilized anti-human Fc antibody and the ability of the cKIT proteins to bind in free solution was determined. Briefly, 25 μg/ml of anti-human Fc antibody at pH 5 was immobilized on a CM5 sensor chip through amine coupling at flow rate of 5 μl/minute on all two flow cells to reach 10,500 RUs. 0.1-1 μg/ml of test antibodies were then injected at 10 μl/min for 1 minute. Captured levels of the antibodies were generally kept below 200 RUs. Subsequently, 3.125 −50 nM of cKIT receptor extracellular domains (ECD) were diluted in a 2-fold series and injected at a flow rate of 40 μl/min for 3 min over both reference and test flow cells. Table of tested ECDs is listed below (Table 6). Dissociation of the binding was followed for 10 min. After each injection cycle, the chip surface was regenerated with 3 M MgCl2 at 10 μl/min for 30 seconds.

mouse cKIT = target: T1, mouse cKIT; test: SPR (Biacore) affinity measurement; assay type: binding; conditions: 25° C., 1:1 model
Procedure: as §1, §2, §3

rat cKIT = test: SPR (Biacore) affinity measurement; assay type: binding; conditions: 25° C., 1:1 model
Procedure: as §1, §2, §3

SCF binding to cKIT = SCF binding to cKIT (Homo sapiens, UniProt P10721); test: competition assays using ELISA and FACS
Sequence of SCF binding to cKIT (P10721 26-976): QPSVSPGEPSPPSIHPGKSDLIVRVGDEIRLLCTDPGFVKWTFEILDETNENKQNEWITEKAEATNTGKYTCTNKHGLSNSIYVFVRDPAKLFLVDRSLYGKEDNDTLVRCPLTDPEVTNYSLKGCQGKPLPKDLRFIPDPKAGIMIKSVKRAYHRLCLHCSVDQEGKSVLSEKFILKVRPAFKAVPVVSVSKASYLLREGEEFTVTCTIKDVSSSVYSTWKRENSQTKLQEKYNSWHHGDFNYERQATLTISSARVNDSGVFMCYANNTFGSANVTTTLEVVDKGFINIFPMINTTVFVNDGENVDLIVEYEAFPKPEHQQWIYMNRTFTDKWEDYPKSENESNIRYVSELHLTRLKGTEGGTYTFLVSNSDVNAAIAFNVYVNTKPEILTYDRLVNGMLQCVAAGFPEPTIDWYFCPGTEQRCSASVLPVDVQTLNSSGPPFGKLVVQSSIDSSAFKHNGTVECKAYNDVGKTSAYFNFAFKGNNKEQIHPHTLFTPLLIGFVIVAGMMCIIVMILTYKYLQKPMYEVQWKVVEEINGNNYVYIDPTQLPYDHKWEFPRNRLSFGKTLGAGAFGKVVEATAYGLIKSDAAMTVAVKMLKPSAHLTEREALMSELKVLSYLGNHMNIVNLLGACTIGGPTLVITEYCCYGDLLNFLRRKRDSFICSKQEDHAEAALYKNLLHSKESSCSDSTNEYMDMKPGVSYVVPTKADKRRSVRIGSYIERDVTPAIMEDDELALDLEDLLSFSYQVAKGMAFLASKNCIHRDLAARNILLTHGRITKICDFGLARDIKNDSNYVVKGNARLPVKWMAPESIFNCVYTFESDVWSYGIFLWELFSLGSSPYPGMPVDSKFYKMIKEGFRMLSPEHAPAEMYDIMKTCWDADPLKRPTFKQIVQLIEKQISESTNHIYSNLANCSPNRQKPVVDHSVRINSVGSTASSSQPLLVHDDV

Sequence of rat cKIT (as listed by the source): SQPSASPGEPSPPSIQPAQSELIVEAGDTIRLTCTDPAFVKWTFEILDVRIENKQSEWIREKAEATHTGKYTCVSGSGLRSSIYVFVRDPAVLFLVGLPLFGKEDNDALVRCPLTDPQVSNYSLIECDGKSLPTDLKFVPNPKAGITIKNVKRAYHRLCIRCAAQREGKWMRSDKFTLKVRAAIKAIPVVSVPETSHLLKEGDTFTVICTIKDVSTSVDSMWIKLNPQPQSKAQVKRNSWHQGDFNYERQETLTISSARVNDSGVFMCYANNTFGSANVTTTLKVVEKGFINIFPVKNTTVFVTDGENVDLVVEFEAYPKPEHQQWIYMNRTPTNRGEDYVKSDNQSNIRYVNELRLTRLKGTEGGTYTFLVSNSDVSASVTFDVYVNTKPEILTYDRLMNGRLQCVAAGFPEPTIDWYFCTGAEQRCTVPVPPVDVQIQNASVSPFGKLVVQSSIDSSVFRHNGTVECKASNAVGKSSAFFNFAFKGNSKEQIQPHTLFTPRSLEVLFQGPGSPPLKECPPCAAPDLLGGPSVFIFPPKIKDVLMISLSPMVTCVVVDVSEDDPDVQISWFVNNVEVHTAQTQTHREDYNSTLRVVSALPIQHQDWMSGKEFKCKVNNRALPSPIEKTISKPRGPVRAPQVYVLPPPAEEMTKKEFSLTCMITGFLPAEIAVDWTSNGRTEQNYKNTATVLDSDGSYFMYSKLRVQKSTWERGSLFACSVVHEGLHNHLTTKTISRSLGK
T2 sequence (P10721 with tags, fused parts or gaps isoform P10721-2): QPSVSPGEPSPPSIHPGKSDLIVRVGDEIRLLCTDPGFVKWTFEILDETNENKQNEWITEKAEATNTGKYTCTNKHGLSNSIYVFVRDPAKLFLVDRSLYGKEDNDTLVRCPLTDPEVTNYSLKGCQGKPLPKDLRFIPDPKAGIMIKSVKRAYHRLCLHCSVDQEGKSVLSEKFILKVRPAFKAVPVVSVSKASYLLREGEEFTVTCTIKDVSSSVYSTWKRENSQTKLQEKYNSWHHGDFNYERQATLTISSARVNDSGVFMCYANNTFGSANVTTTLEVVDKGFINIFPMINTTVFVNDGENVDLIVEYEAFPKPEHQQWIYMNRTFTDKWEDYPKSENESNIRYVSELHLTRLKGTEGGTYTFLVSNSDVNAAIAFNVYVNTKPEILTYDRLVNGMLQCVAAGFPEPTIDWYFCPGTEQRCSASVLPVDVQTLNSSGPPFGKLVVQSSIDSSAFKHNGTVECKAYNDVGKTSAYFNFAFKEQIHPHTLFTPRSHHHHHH

Molecule | proliferation of GIST cells (GIST cell lines) | ADCC killing of target cells (Uke-1 cells) | Affinity human cKIT (nM) (human cKIT) | Affinity mouse cKIT (nM) (mouse cKIT) | Affinity to rat cKIT (nM) (rat cKIT) | blocking of SCF binding to cKIT (SCF binding to cKIT)
Cc1ccc(NC(=O)c2ccc(CN3CCN(C)CC3)cc2)cc1Nc1nccc(-c2cccnc2)n1 [imatinib] | significantly reduce proliferation | – | – | – | – | –
MabCampath® [reference compound] | – | mediated ADCC killing | – | – | – | –
9P3: hybridoma derived anti-cKIT antibody, VH SEQ ID NO:9, VL SEQ ID NO:18 (antibody, listed as Homo sapiens, V domains shown) VH: EVRLVESEGGLVQPRSSMKLSCTASGFTFSDYYMAWVRQVPEKGLEWVANINYDGSSTYYLDSLKSRFIISRDNAKNILYLQMSSLKSEDTATYYCARGDYYGTTYWYFDVWGTGTTVTVSS VL: DIQMTQTTSSLSASLGDRVTISCRASQDISNYLNWYQQKPDGTVKLLIYYTSRLQSGVPSRFSGSGSGTDYSLTISNLEQEDIATYFCQQGKKLWSFGGGTKLEIKR | – | – | nanomolar level | Not reactive | Not reactive | partial blocking
NEG027: anti-cKIT antibody of Table 3, VH SEQ ID NO 64, VL SEQ ID NO 73 (antibody, listed as Homo sapiens, V domains shown) VH: EVQLVESGGGLVQPGGSLRLSCAASGFTFSDYYMAWVRQAPGKGLEWVASINQNTGSTYYLDSVRGRFTISRDNAKNSLYLQMNSLRAEDTAVYYCARGDYYGTTYWYFDVWGQGTTVTVSS VL: EIVMTQSPATLSLSPGERATLSCRASQDISNYLNWYQQKPGQAPRLLIYYTSRLQSGIPARFSGSGSGTDYTLTISSLEPEDFAVYYCQQGKKLWSFGGGTKVEIK | – | – | nanomolar level | Not reactive | Not reactive | –
NEG086: anti-cKIT antibody of Table 3, VH SEQ ID NO 100, VL SEQ ID NO 109 (antibody, listed as Homo sapiens, V domains shown) VH: EVQLVESGGGLVQPGGSLRLSCAASGFTFSDYYMAWVRQAPGKGLEWVANINQIAGSTYYVDSVQGRFTISRDNAKNSLYLQMNSLRAEDTAVYYCARGDYYGTTYWYFDVWGQGTTVTVSS VL: DIQMTQSPSSLSASVGDRVTITCRASQSISSYLNWYQQKPGKAPKLLIYYTSRLQSGVPSRFSGSGSGTDFTLTISSLQPEDFATYYCQQGRRLWSFGGGTKVEIK | – | – | nanomolar level | Not reactive | Not reactive | –
NEG026: anti-cKIT antibody of Table 3, VH SEQ ID NO 46, VL SEQ ID NO 55 (antibody, listed as Homo sapiens, V domains shown) VH: EVQLVESGGGLVQPGGSLRLSCAASGFTFSDYYMAWVRQAPGKGLEWVANINQNTGSTYYVDSVQGRFTISRDNAKNSLYLQMNSLRAEDTAVYYCARGDYYGTTYWYFDVWGQGTTVTVSS VL: EIVMTQSPATLSLSPGERATLSCRASQDISNYLNWYQQKPGQAPRLLIYYTSRLQSGIPARFSGSGSGTDYTLTISSLEPEDFAVYYCQQGKKLWSFGGGTKVEIK | – | – | – | Not reactive | Not reactive | –
NEG087: anti-cKIT antibody of Table 3, VH SEQ ID NO 118, VL SEQ ID NO 127 (antibody, listed as Homo sapiens, V domains shown) VH: EVQLVESGGGLVQPGGSLRLSCAASGFTFSDYYMAWVRQAPGKGLEWVASINQNTGSTYYLDSVRGRFTISRDNAKNSLYLQMNSLRAEDTAVYYCARGDYYGTTYWYFDVWGQGTTVTVSS VL: DIQMTQSPSSLSASVGDRVTITCRASQSISSYLNWYQQKPGKAPKLLIYYTSRLQSGVPSRFSGSGSGTDFTLTISSLQPEDFATYYCQQGRRLWSFGGGTKVEIK | – | – | nanomolar level | Not reactive | Not reactive | –
